Measured values published in the supplement of paper PMC9732359.
± gives the uncertainty stated by the source.

Assay: protein stability index of a GFP-peptide fusion (yeast GPS) (PSI 1-4); higher = more stable; sorted into four equal gates, so the index is relative within each strain
Method in brief: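 Sequencing reads from sorted gates were used to score each peptide. The library consisted of tiled 17-residue yeast protein peptides fused downstream of GFP on a Cherry-expressing plasmid, pooled and carried in yeast. Mid-log cultures in leucine-free medium were split into four equal gates by GFP/Cherry ratio, and each gate's plasmids were PCR-amplified and Illumina-sequenced. The protein stability index adds up, over all gates, the read frequency multiplied by the gate number.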

| Sequence | protein stability index (doa10∆) | protein stability index (pdr5∆) | protein stability index (san1∆) | protein stability index (ubr1∆) |
| --- | --- | --- | --- | --- |
| SRRWRQRKNIQSLELMI [BRR2] | 1.39 ± 0.096 | 1.88 ± 0.073 | 2.15 ± 0.15 | 1.29 ± 0.057 |
| SNEEKEKIKMKLKQGQK [GAL11] | 2.96 ± 0.25 | 3.37 ± 0.12 | 3.04 ± 0.07 |  |
| YSPNTLGHPDNYIPGNP [COB] | 2.52 ± 0.11 | 2.27 ± 0.088 | 2.9 ± 0.064 | 2.43 ± 0.047 |
| QLDDEDFDLLNKTLTFE [FAS1] | 3.38 ± 0.12 | 3.58 ± 0.098 | 3.36 ± 0.069 | 3.16 ± 0.085 |
| VLTYPEKVTRYNRHKLQ [RPO31] | 2.1 ± 0.055 | 1.6 ± 0.048 | 2.32 ± 0.052 | 1.43 ± 0.05 |
| RKDENQFSYVDSSMTTV [AAR2] | 2.98 ± 0.041 | 3.09 ± 0.045 | 3 ± 0.033 | 3.06 ± 0.04 |
| LLRRLKKDVEKELPDKV [SNF2] |  | 3.67 ± 0.24 | 3.36 ± 0.092 | 3.38 ± 0.12 |
| SNEDVMMTGAEQDPYSN [RPB3] | 3.09 ± 0.092 | 3.09 ± 0.079 | 3.19 ± 0.085 | 3.12 ± 0.073 |
| HNGRDKIQFHIHFADVA [RGR1] | 1.68 ± 0.051 | 1.79 ± 0.049 | 1.43 ± 0.079 | 1.84 ± 0.043 |
| QVVGPFHTSFSAVVGPN [SMC4] | 2.53 ± 0.063 | 2.39 ± 0.055 | 2.78 ± 0.055 | 2.73 ± 0.037 |
| IEMKDVSSKPSKPESSV [MED1] | 3.15 ± 0.12 | 3.33 ± 0.11 | 2.89 ± 0.076 | 3.25 ± 0.064 |
| IRNARSIRAEAVAASST [POP1] | 3.13 ± 0.24 | 2.54 ± 0.23 | 2.5 ± 0.14 | 2.19 ± 0.1 |
| SLAWSADGQTLFAGYTD [ASC1] | 2.66 ± 0.08 | 3.05 ± 0.091 | 2.7 ± 0.075 | 3.09 ± 0.1 |
| LKLEYYNLLVKISLHKR [RPN5] | 1.38 ± 0.26 | 1.28 ± 0.26 |  | 1.13 ± 0.084 |
| SRKRKPKSASNTSSKRQ [IRR1] | 2.86 ± 0.1 | 2.7 ± 0.14 | 2.89 ± 0.085 | 3.09 ± 0.069 |
| PDFKPWEHTAAEDQILA [SRB8] | 2.83 ± 0.12 | 2.95 ± 0.12 | 3.03 ± 0.075 | 3.02 ± 0.091 |
| PSYSPTSPSYSPTSPSY [RPO21] | 2.65 ± 0.03 | 2.884 ± 0.028 | 2.859 ± 0.028 | 2.815 ± 0.023 |
| AQQLVGVYKRDNRTKST [SMC4] | 3.11 ± 0.2 | 3.04 ± 0.2 |  |  |

| Sequence | protein stability index (doa10∆) | protein stability index (pdr5∆) | protein stability index (san1∆) | protein stability index (ubr1∆) |
| --- | --- | --- | --- | --- |
| SPSYSPTSPNYSPTSPS [RPO21] | 2.85 ± 0.039 | 2.94 ± 0.04 | 2.97 ± 0.033 | 3.024 ± 0.026 |
| IEEAKSIRRQDYINELS [REC8] |  | 3.11 ± 0.22 | 3.39 ± 0.16 | 3.14 ± 0.17 |
| ESPVDVQSQVDSSSVSE [FAS1] | 3.11 ± 0.06 | 3.3 ± 0.073 | 3.14 ± 0.051 | 3.23 ± 0.042 |
| DQFQWILRKPGKDCKLQ [RRI2] | 2.62 ± 0.19 | 3.25 ± 0.17 | 3.26 ± 0.16 | 3.3 ± 0.16 |
| HYVSTSKISQMAQNKTH [YLR018C/POM34] | 1.56 ± 0.032 | 2.02 ± 0.035 | 1.78 ± 0.058 | 1.87 ± 0.027 |
| LIERYYPKLTLDFQTNK [RPS17A] | 3.12 ± 0.074 | 3.01 ± 0.061 | 3.02 ± 0.045 | 2.74 ± 0.053 |
| GFDIQKSCEPVSISTSV [SIR4] | 1.36 ± 0.091 | 1.73 ± 0.13 | 1.51 ± 0.27 | 1.56 ± 0.07 |
| LWDVATGETYQRFVGHK [ASC1] | 2.98 ± 0.19 | 3.42 ± 0.17 | 1.59 ± 0.17 | 3.4 ± 0.094 |
| QARIILNHILEKSTQLQ [YGR119C/NUP57] | 2.83 ± 0.12 | 3.09 ± 0.072 | 2.63 ± 0.12 | 2.79 ± 0.043 |
| VVEACGNIVAELAQDPQ [YCS4] | 2.75 ± 0.082 | 3.38 ± 0.15 | 3.04 ± 0.1 | 2.12 ± 0.093 |
| MAQRTLKNKYESYDAAL [FAS2] | 3.147 ± 0.019 | 3.059 ± 0.017 | 2.999 ± 0.015 | 3.064 ± 0.012 |
| EIENATKDIFPLQNIHV [RPS1A] | 2.1 ± 0.086 | 2.36 ± 0.27 | 1.11 ± 0.29 | 2.25 ± 0.083 |
| NMGSLLGLCLVIQIVTG [COB] | 2.67 ± 0.06 | 2.58 ± 0.053 | 2.59 ± 0.061 | 3 ± 0.034 |
| ELDILNKGWKLQSLNES [SRB4] |  | 3.05 ± 0.21 | 3 ± 0.18 |  |
| RAIILERNAAYQKEYET [RPL7A] | 2.59 ± 0.067 | 2.81 ± 0.05 | 2.62 ± 0.05 | 2.89 ± 0.079 |
| DGKEDVEKGTPLGKILL [SME1] | 3.57 ± 0.071 | 3.44 ± 0.09 | 3.53 ± 0.053 | 3.56 ± 0.075 |
| RLISSKMPGGFTITVAR [FAS2] | 1.65 ± 0.038 | 2 ± 0.063 | 1.52 ± 0.073 | 1.92 ± 0.044 |
| SSSDFRLHYYPKDPSNV [BRR2] | 3.21 ± 0.066 | 3.29 ± 0.06 | 3.47 ± 0.052 | 3.15 ± 0.042 |
